Data on nine molecules can be found in US20240301052A1 (LANOVA MEDICINES DEVELOPMENT, published 2024).

The target of test [1] is T1, human SLC34A2 (human, UniProt O95436 1-690).
T1 construct: whole, on cells; also called human solute carrier 34 A2; NaPi2b
T1 sequence (looked up): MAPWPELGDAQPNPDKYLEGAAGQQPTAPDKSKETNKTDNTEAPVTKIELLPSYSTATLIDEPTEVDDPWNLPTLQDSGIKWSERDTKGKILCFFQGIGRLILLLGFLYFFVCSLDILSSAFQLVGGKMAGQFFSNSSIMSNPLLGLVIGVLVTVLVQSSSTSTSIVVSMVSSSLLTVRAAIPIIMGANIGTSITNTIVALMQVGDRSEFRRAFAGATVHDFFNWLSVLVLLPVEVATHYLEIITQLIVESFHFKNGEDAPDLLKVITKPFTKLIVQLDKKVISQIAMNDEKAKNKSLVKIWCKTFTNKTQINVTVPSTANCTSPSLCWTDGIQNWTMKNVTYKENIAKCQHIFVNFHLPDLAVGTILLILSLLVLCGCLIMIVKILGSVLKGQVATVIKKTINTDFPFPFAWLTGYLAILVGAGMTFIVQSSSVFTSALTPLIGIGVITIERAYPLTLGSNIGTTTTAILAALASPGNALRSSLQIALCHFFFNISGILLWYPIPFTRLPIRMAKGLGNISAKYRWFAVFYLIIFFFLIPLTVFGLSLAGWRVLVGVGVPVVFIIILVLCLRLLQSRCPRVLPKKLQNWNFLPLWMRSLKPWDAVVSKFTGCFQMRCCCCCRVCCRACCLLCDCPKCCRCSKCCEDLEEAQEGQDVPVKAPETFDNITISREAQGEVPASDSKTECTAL
The test is described as follows: FACS, OVCAR3 cells. On the technique in general: A flow cytometer gives signals particle by particle.

Test [2] addresses T1, human SLC34A2. Nature of the test: FACS, HEK293/human SLC34A2 cells. As for the experimental part:
Briefly, OVCAR3 cells or HEK293 cells expressing human SLC34A2 were incubated with chimeric antibodies (from 200 nM, 4 folds dilution, 8 points). After incubation at 4° C. for 60 minutes, the cells were washed with FACS buffer twice, then stained with fluorescent conjugated secondary antibody at 4° C. for 30 minutes. After that the cells were washed twice and analyzed by flow cytometry.

The target of test [3] is T1, human SLC34A2. The test is described as follows: FACS, OVCAR3 cells. This is another data set of the same source.
The next test addresses T2, rat SLC34A2 (rat, UniProt Q9JJ09 1-695).
T2 construct: whole, on cells
T2 sequence (looked up): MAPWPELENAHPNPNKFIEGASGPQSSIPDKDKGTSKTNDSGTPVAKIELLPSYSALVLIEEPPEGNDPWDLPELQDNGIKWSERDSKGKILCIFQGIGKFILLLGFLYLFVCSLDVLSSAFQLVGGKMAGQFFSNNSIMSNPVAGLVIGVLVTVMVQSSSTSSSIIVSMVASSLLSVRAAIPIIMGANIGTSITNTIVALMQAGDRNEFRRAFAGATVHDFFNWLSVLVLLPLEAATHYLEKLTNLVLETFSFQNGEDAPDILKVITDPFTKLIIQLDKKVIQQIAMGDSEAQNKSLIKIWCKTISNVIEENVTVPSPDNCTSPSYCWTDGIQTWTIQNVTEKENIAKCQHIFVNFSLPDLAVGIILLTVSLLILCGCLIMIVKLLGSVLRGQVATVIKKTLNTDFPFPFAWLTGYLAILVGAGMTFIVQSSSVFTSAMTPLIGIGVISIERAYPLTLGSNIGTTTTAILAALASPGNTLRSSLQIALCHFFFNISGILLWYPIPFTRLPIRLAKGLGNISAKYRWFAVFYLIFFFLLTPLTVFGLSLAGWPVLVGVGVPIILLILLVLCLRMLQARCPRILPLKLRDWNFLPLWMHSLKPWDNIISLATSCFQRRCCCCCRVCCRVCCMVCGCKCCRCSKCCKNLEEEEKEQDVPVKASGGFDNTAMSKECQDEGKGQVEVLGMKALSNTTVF
Nature of the test: FACS, HEK293/Rat SLC34A2 cells.

The target of test [4] is T1, human SLC34A2. Nature of the test: FACS, RMG-1 cells.
The target in test [5] is T1, human SLC34A2. Nature of the test: FACS, RMG-1 cells. The source holds these as a separate data set.
The target in test [6] is T1, human SLC34A2. The test is described as follows: FACS, OVCAR3 cells.
Test [7] concerns the target T1, human SLC34A2. The test is described as follows: FACS, OVCAR3 cells. This is another data set of the same source.
The target of test [8] is T1, human SLC34A2. The test is described as follows: FACS, OVCAR3 cells. This is another data set of the same source.
Test [9] concerns the target T1, human SLC34A2. Nature of the test: FACS, OVCAR3 cells. This is another data set of the same source.
Test [10] concerns the target T1, human SLC34A2. Nature of the test: cell-based or functional assay.
Test [11] addresses T1, human SLC34A2. Nature of the test: FACS, HEK293/human SLC34A2 cells.
Test [12] addresses T1, human SLC34A2. The test is described as follows: FACS, HEK293/human SLC34A2 cells. The source holds these as a separate data set.
The target in test [13] is Cynomolgus SLC34A2 (Cynomolgus). The test is described as follows: FACS, cells expressing Cynomolgus SLC34A2.

B1: xi91C9F1 hIgG1 (antibody, V domains shown)
VH: EVQLQQSGPELVKPGTSVKISCKTSGFFFTEYIIHWVKQSHGRSLEWIGGIIPNNGVTNYKQNFRGKAALTADKSSNTAYMELRSLTSEDSAVYYCARWRNGYYSAMDSWGQGTSVTVSS
VL: DIVVTQSHKFMSTSLGDRVSITCTASQDVGTAVAWYQQKPGHSPKLLIYWASTRHTGVPERFTGSGSGTDFTLTITNVQSEDLADYFCQQYRTSPLTFGVGTKLELK
notes: chimeric, hIgG1
On to B1, for which the results for the concentration for a half-maximal effect (EC50) in the test with human SLC34A2 [1] and in the test with human SLC34A2 [2] were 1.77 nM and 1.06 nM, respectively. Further, the “Top (MFI)” value with human SLC34A2 [1] was 32100 MFI; with human SLC34A2 [2], 44800 MFI.

B2: xi63A11D5B4 hIgG1 (antibody, V domains shown)
VH: QVQLQQPGAELVKPGASVKMSCRTSGYTFITYNMHWVKQTPGQGREWIGAIYPGNGDTSYNQKFKGKATLTADKSSSTAYMQLNSLTSEDSAVYYCSISTIITTGAVDYWGQGTSVTVAS
VL: DIVMTQSHKFMSTSVGDRVSITCKASQDVGTAVAWYQQKAGQSPKLLIYWTSTRHTGVPDRFTGSGSGTDFTLIIRSLQSEDLADYFCQQYSRIPLTFGSGTKLEIK
notes: chimeric, hIgG1
With B2, in the test with human SLC34A2 [3], the EC50 came out at 10.5 nM and the “Top (MFI)” value was determined as 32100 MFI. In addition, in the test with human SLC34A2 [2], the EC50 came out at 1.5 nM and the “Top (MFI)” value was found to be 103000 MFI.

B3: 62G10E4G8.p3.z15 hIgG1 (antibody, V domains shown)
VH: QVQLVQSGAEVVKPGASVKMSCKASGYTFPSYITHWVKQAPGQGLEWIGAIYPGNADTSYIQKFKGRATLTADKSTSTAYMELSSLRSEDTAVYYCARGTYGTSAWFTYWGQGTLVTVSS
VL: EIVLTQSPATLSVSPGERATLSCRARQNIGNNLYWYQQKPGQSPRLLIKYASQSISGIPSRFSGSGSGTDFTLTISSLQSEDFAVYFCQQSFSWPLTFGQGTKLEIK
notes: humanized hIgG1
In the test with rat SLC34A2, B3 registered a concentration giving a half-maximal response (EC50) of 4.04 nM.

B4: xi62G10E4G8 hIgG1 (antibody, V domains shown)
VH: QVQLQQSGAEVVKPGASVKMSCKASGYTFPSYITHWVKQTPGQGLEWIGAIYPGNGDTSYIQKFKGKATLTADKSSSTAYMQLSSLTSEDSAVYYCARGTYGTSAWFTYWGQGTLVTVSA
VL: DIVLTQSPATLSVTPGDSVSLSCRARQNIGNNLYWYQQKSHESPRLLIKYASQSISGIPSRFSGSGSGTDFTLTINSVETEDFGVYFCQQSFSWPLTFGAGTKLELK
notes: chimeric, hIgG1
Consider B4, for which, in the test with human SLC34A2 [2], the half-maximal effective concentration (EC50) stood at 1.28 nM and the “Top (MFI)” value was determined as 101000 MFI.

B5: XMT-1536 (antibody, INN chains, looked up, V domains shown)
VH: QVQLVQSGAEVVKPGASVKMSCKASGYTFTGYNIHWVKQAPGQGLEWIGAIYPGNGDTSYKQKFRGRATLTADTSTSTVYMELSSLRSEDSAVYYCARGETARATFAYWGQGTLVTVSS
VL: DIQMTQSPSSLSASVGDRVTITCSASQDIGNFLNWYQQKPGKTVKVLIYYTSSLYSGVPSRFSGSGSGTDYTLTISSLQPEDFATYYCQQYSKLPLTFGQGTKLELK
modifications: rilsodotin auristatin payload
In the test with human SLC34A2 [4], B5 registered a half-maximal effective concentration (EC50) of 7.17 nM and a Top of 9940 MFI. The EC50 in the test with human SLC34A2 [5] was 7.2 nM. In the test with human SLC34A2 [6], this molecule came in with a half-maximal effective concentration (EC50) of 3.8 nM, a Top of 29000 MFI and a Top (MFI) of 58400 MFI. In the test with human SLC34A2 [7], the concentration for a half-maximal effect (EC50) was 6.87 nM and the Top (MFI) was 29000 MFI. In the test with human SLC34A2 [8], this molecule came in with an EC50 of 2.68 nM and a Top (MFI) of 32400 MFI. The molecule further registered an EC50 in the test with human SLC34A2 [9] of 6.8 nM. In the test with human SLC34A2 [10], the ADCC reporter EC50 is 0.76 nM, the ADCC reporter Top (MFI) was determined as 127000 MFI, the ADCC-HEK293 was 0.76 nM and the ADCC-OVCAR3 worked out at 0.25 nM. In the test with human SLC34A2 [10], this molecule had a Cytotoxic Effect - MDAH-2774 of 0.28 nM, a Cytotoxic Effect - OVCAR3 of 0.029 nM, a cytotoxicity EC50 of 0.72 nM and a cytotoxicity Inhibition % of 100%. In the test with human SLC34A2 [11], this molecule registered an EC50 of 2.5 nM and a Top (MFI) of 27700 MFI. In addition, in the test with human SLC34A2 [12], the EC50 is 4.05 nM and the Top was 34700 MFI. In [13], this molecule showed a concentration giving a half-maximal response (EC50) of 29.3 nM and a Top (MFI) of 2050 MFI.

B6: 30H9B8F9.p1.z5 hIgG1 (antibody, V domains shown)
VH: QVQLVQSGAEVKKPGASVKVSCKTSGYTFTTNNMHWVRQAPGQGLEWIGAIYPGSGATAYNQKFKGRVTMTADTSTSTVYMELSSLRSEDTAVYYCARGMYGHGAMDYWGQGTLVTVSS
VL: DIQLTQSPSFLSASVGDRVTITCKASQDVGTAVAWYQQKPGKAPKLLIYWATTRHSGVPSRFSGSGSGTEFTLTISSLQPEDFATYYCQQYSSNPLTFGQGTKLEIK
notes: humanized hIgG1
Regarding B6, in the test with rat SLC34A2, the concentration for a half-maximal effect (EC50) is 1.81 nM.

B7: xi30H9B8F9 hIgG1 (antibody, V domains shown)
VH: QVQLQQPGAELVKPGASVKMSCKTSGYTFTTNNMHWVKQTPGQGLEWIGAIYPGNGATAYNQKFKGKATLTADKSSSTAYMQLSSLTSEASAVYYCARGMYGHGAMDYWGQGTSVIVSS
VL: DIVMTQSHKFMSRSVGDRVRITCKASQDVGTAVAWYQQKPGQSPKLLIYWATTRHSGVPDRFTGSGSGTDFIFTISNVQSEDLADYFCQQYSSNPLTFGAGTKLELK
notes: chimeric, hIgG1
As to B7, in the test with human SLC34A2 [2], a half-maximal response (EC50) required 0.96 nM and the “Top (MFI)” value worked out at 107000 MFI.

B8: 91C9F1.p1.z7 hIgG1 (antibody, V domains shown)
VH: QVQLVQSGAEVKKPGSSVKVSCKTSGFFFTEYIIHWVRQAPGQGLEWIGGIIPNNDVTNYKQNFRGRVTLTADKSTSTAYMELSSLRSEDTAVYYCARWRNAYYSAMDSWGQGTTVTVSS
VL: DIQVTQSPSSLSTSVGDRVTITCTASQDVGTAVAWYQQKPGKSPKLLIYWASTRHTGVPERFTGSGSGTDFTLTISSVQPEDVATYFCQQYRTSPLTFGVGTKVEIK
notes: humanized hIgG1
In the case of B8, in the test with human SLC34A2 [1], the EC50 turned out to be 1.67 nM and the “Top (MFI)” value was 37400 MFI. Also, the EC50 with rat SLC34A2 is 2.62 nM.

B9: 63A11D5B4.p1.z9 hIgG1 (antibody, V domains shown)
VH: QVQLVQSGAEVVKPGASVKMSCKTSGYTFITYNMHWVRQAPGQGLEWIGAIYPGSGDTSYNQKFKGRVTLTADKSTSTAYMELSSLRSEDTAVYYCSISTIITTGAVDYWGQGTLVTVSS
VL: DIQMTQSPSSLSASVGDRVTITCKASQDVGTAVAWYQQKPGKVPKLLIYWTSTRHTGVPSRFSGSGSGTDFTLTISSLQPEDVATYYCQQYSRIPLTFGGGTKVEIK
notes: humanized hIgG1
Turning to B9, the half-maximal effective concentration (EC50) with human SLC34A2 [3] amounted to 9.12 nM; with rat SLC34A2, 3.04 nM. Further, the “Top (MFI)” value in the test with human SLC34A2 [3] came to 26500 MFI.

In general, EC50 refers to the midpoint of the concentration-response curve. Low values mean greater potency, high ones weaker potency.
